Like-named read-outs stand apart in the source and are kept apart here.
T1: WWOX WW2 (amino acids 57-91) (human)
T1 chain: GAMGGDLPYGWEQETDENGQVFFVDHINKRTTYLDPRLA

T2: WWOX WW1 (amino acids 16-50) (human)
T2 chain: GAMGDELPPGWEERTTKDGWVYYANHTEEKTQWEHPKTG

T3: WWOX WW1-WW2 tandem domain (amino acids 16-91) (human)
T3 chain: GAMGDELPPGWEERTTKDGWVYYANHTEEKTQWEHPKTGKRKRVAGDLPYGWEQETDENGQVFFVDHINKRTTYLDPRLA


Key:
[1] = molecular target: WWOX WW1-WW2 tandem domain (amino acids 16-91) (human); assay: ITC
[2] = molecular target: WWOX WW1-WW2 tandem domain (amino acids 16-91) (human); assay: NMR titration
[3] = molecular target: T1, WWOX WW2 (amino acids 57-91); assay: ITC
[4] = molecular target: T2, WWOX WW1 (amino acids 16-50); assay: ITC
[5] = molecular target: T3, WWOX WW1-WW2 tandem domain (amino acids …); assay: NMR titration
[6] = molecular target: T3, WWOX WW1-WW2 tandem domain (amino acids …); assay: NMR titration
[7] = molecular target: T3, WWOX WW1-WW2 tandem domain (amino acids …); assay: ITC

Molecule	Kd [1] [µM]	KD WW1 (based on W44) [2] [µM]	KD WW2 (based on V73) [5] [µM]	KD WW1 (based on W44) [6] [µM]	Kd [7] [µM]	dH [7] [kcal/mol]	also measured
ErbB4 peptide PY3 (1293-1305)	30	10	–	–	–	–	dH [1]: -12.1 kcal/mol; KD WW2 (based on V73) [2]: > 1000 µM
ErbB4 peptide PY2 (1048-1060)	> 100	15	–	–	–	–	–
ErbB4 peptide PY1 (1027-1039)	> 100	21	–	–	–	–	–
GTVLPPPPYRHRN [ErbB4 peptide PY3 (1293-1305)]	–	–	–	–	–	–	Kd [3]: > 200 µM; Kd [4]: 78 µM; dH [4]: -23 kcal/mol
GTVLPPPPYRHRNGGGGGTVLPPPPYRHRN [ErbB4 double-motif peptide PY3PY3 (polyglycine linker)]	–	–	40 ± 20	0.6 ± 0.3	3.1	-24.9	Kd [4]: 50 µM; dH [4]: -39 kcal/mol
AFNIPPPIYTSRAGGGGGTVLPPPPYRHRN [ErbB4 double-motif peptide PY1PY3 (polyglycine linker)]	–	–	80 ± 20	6 ± 1	8	-22	–
AFNIPPPIYTSRAGGGGGHSPPPAYTPMS [ErbB4 double-motif peptide PY1PY2S (natural linker replaced by polyglycine)]	–	–	70 ± 20	2 ± 1	21	-29	–
AFNIPPPIYTSRARIDSNRSEIGHSPPPAYTPMS [ErbB4 double-motif peptide PY1PY2 (1027-1060, natural linker)]	–	–	~1000	10 ± 2	14	-39	–
